Measured values from PMC6525205, “Structure of the human frataxin-bound iron-sulfur cluster assembly complex provides insight into its activation mechanism” (Nature Communications, 2019).
Numbering of substitutions follows the chain as printed. In names and notes the source's numbering stands.

B1: human frataxin (FXN) (Δ1-80), wild-type (domain or fragment, UniProt Q16595 81-210, looked up)
chain: SGTLGHPGSLDETTYERLAEETLDSLAEFFEDLADKPYTFEDYDVSFGSGVLTVKLGGDLGTYVINKQTPNKQIWLSSPSSGPKRYDWTGKNWVYSHDGVSLHELLAAELTKALKTKLDLSSLAYSGKDA
notes: frataxin (FXN), human, Δ1-80; Cloned into pCDF-LIC-Bsa4; Two copies of FXN stand in the SDAUF heterodecamer; also called FXN(WT); WT; source: E. coli BL21(DE3)-R3-pRARE2, purified (Ni Sepharose, Superdex S75, TEV, reverse Ni); for cryo-EM co-expressed with the His-ISD11/NFS1/ISCU plasmid and purified as the SDAUF complex
B2: FXN(D124A) (domain or fragment, human, UniProt Q16595 81-210, looked up)
chain: B1 chain with D44A
notes: frataxin (FXN), human, Δ1-80, site-directed variant; Variant of m1
B3: FXN(N146K) (domain or fragment, human, UniProt Q16595 81-210, looked up)
chain: B1 chain with N66K
notes: frataxin (FXN), human, Δ1-80, clinical variant of Friedreich's ataxia; Variant of m1
B4: FXN(N151A) (domain or fragment, human, UniProt Q16595 81-210, looked up)
chain: B1 chain with N71A
notes: as for B2
B5: FXN(P163G) (domain or fragment, human, UniProt Q16595 81-210, looked up)
chain: B1 chain with P83G
notes: frataxin (FXN), human, Δ1-80, site-directed variant (Gly is the bacterial equivalent residue); Variant of m1
B6: FXN(R165C) (domain or fragment, human, UniProt Q16595 81-210, looked up)
chain: B1 chain with R85C
notes: as for B3
B7: FXN(W155R) (domain or fragment, human, UniProt Q16595 81-210, looked up)
chain: B1 chain with W75R
notes: as for B3

Target: T1, NFS1-ISD11-ACP-ISCU complex with biotinylated ISCU (SDAUb) (human | E. coli, UniProt Q9Y697 56-457; Q9HD34 1-91; P0A6A8 1-74; Q9H1K1 35-167, pyridoxal 5′-phosphate covalently-linked to Lys258 | 4′-phosphopantetheine (4′-PP) acyl-chain attached to Ser37 | biotin (site and method not stated))
T1 construct: NFS1 cysteine desulfurase, human, Δ1-55; C-terminal residue printed as His457; ISD11/LYRM4, human; E. coli acyl carrier protein (ACPec), endogenous in the expression host, co-purified; ISCU scaffold protein, human, isoform 1, Δ1-34; the related SDAUF complex holds two copies of each chain; source: purified SDA (E. coli) combined with biotinylated ISCU (E. coli) and isolated on Superdex 200 …
T1 sequence (Q9Y697 56-457, chain 1 of 4): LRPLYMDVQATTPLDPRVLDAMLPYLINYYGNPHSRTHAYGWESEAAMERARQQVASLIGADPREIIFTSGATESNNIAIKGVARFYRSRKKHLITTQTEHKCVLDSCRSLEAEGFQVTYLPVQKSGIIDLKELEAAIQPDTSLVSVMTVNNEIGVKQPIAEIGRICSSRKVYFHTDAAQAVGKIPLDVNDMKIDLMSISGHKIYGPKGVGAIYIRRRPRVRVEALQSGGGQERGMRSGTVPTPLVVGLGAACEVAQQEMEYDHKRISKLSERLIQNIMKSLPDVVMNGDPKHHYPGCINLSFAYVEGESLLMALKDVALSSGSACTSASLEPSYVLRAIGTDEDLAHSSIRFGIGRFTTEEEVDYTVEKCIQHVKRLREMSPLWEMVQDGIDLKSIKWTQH
T1 sequence (Q9HD34 whole entry, chain 2 of 4, canonical isoform): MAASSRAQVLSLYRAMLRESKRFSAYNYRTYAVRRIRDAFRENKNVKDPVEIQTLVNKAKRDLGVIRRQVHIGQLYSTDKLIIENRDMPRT
T1 sequence (P0A6A8 1-74, chain 3 of 4): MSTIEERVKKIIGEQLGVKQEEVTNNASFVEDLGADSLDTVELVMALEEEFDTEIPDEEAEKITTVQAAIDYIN
T1 sequence (Q9H1K1 35-167, chain 4 of 4): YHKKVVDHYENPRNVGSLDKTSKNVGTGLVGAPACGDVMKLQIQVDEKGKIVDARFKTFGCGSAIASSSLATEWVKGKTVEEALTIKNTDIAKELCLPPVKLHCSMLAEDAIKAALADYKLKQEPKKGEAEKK
Assay: BLI; SDAUb complex (biotinylated ISCU) at 0.1 mg/mL loaded on streptavidin sensors; FXN 500 µM to 1 nM in solution; 25 °C; 50 mM HEPES pH 7.5, 200 mM NaCl, 5% glycerol, 2 mM TCEP, 5 mM DTT, 0.5 mg/mL BSA; Kd from response vs. [FXN], one site-specific binding fit
Settings: both partners purified

Binder	Kd
B1	3.32 µM
B2	14.4 µM
B3	177 µM
B4	9.45 µM
B5	38.5 µM
B6	134 µM
B7	253 µM
